Data reported in patent publication US20260193331A1 (THABOR THERAPEUTICS, published 2026).
Substitutions are numbered along the chain they refer to. Read-outs that look alike come from different tables or passages of the source. One block for each binder: values may come before it.

Legend:
dog AGR2 = target: T1, dog AGR2 (dog, UniProt O95994 21-175 (human entry), limits assumed); experiment: ELISA, antigen coated at 1 µg/mL, antibody titrated
T1 construct: Whole entry as named
T1 chain: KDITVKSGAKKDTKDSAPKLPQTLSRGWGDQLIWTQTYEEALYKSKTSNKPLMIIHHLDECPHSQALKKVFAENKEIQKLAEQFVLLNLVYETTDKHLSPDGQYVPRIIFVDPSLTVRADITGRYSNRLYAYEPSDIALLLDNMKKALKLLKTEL

macaque AGR2 = target: T2, macaque AGR2 (macaque (rhesus monkey), UniProt O95994 21-175 (human entry), limits assumed); experiment: as above
T2 construct: Whole entry as named; also called rhesus monkey AGR2
T2 chain: T1 chain with K1R, I3T, S7P, A17R, I109L, S135A, I137T

human AGR2 E60A = target: T3, human AGR2 E60A (human, UniProt O95994 21-175); experiment: as above
T3 construct: Whole entry as named; also called monomeric AGR2
T3 chain: T1 chain with K1R, I3T, S7P, A17R, E40A, I109M, S135A, I137T

human AGR2 WT [1] = target: T4, human AGR2 WT (human, UniProt O95994 21-175); experiment: as above
T4 construct: also called hAGR2; recombinant human AGR2
T4 sequence: T1 chain with K1R, I3T, S7P, A17R, I109M, S135A, I137T

mouse AGR2 = target: T5, mouse AGR2 (mouse, UniProt O88312 21-175); experiment: as above
T5 construct: Whole entry as named
T5 sequence: T1 chain with I3T, T13P, A17R, K44R, K50R, I54V, N74H, I109V, I137T, L141Y

human AGR2 WT [2] = target: T4, human AGR2 WT; experiment: kinetics of Table 4, antibody immobilized, hAGR2 analyte
human AGR2 WT [3] = target: T4, human AGR2 WT; experiment: kinetics, antibody immobilized, hAGR2 soluble analyte; instrument not stated
human AGR3 [4] = target: T6, human AGR3 (human, UniProt Q8TD06 22-166, limits assumed); experiment: ELISA on plate-coated antigen (1 µg/mL); antibody titrated 10 µg/mL to 0.15 ng/mL; anti-human IgG-HRP, OD 450 nm
T6 construct: Closest family member of AGR2, used as a specificity control in the ELISA
T6 sequence (looked up): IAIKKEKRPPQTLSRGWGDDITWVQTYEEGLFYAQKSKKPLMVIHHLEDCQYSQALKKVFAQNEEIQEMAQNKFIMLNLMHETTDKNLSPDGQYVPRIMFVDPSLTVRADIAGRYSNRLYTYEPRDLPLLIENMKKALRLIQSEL

BSA [5] = target: T7, BSA (UniProt P02769 25-607); experiment: as above
T7 construct: Negative control coating in the ELISA

human AGR3 [6] = target: T6, human AGR3; experiment: as above; remark: listed apart in the source
BSA [7] = target: T7, BSA; experiment: as above; remark: listed apart in the source
human AGR3 [8] = target: T6, human AGR3; experiment: as above; remark: listed apart in the source
BSA [9] = target: T7, BSA; experiment: as above; remark: listed apart in the source
human AGR3 [10] = target: T6, human AGR3; experiment: as above; remark: listed apart in the source
BSA [11] = target: T7, BSA; experiment: as above; remark: listed apart in the source
human AGR3 [12] = target: T6, human AGR3; experiment: as above; remark: listed apart in the source
BSA [13] = target: T7, BSA; experiment: as above; remark: listed apart in the source
human AGR3 [14] = target: T6, human AGR3; experiment: as above; remark: listed apart in the source
BSA [15] = target: T7, BSA; experiment: as above; remark: listed apart in the source

T7 sequence (P02769 25-607 limits assumed): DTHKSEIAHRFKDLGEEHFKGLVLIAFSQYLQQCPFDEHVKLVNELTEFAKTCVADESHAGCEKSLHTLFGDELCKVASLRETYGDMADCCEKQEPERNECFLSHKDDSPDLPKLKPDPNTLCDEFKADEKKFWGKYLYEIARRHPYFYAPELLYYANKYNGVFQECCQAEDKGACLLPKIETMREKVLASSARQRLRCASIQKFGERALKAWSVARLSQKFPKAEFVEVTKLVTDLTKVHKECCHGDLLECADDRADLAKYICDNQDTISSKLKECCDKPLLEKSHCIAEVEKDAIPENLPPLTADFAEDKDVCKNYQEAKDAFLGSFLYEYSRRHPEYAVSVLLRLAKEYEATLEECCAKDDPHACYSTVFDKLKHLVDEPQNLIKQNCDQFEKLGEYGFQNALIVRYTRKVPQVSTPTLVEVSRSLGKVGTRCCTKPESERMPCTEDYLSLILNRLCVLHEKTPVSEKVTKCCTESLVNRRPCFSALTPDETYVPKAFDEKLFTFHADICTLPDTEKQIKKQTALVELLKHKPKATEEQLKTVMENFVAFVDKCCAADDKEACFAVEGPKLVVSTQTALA

EC50 (dog AGR2): 0.42 nM | EC50 (macaque AGR2): 0.48 nM | EC50 (human AGR2 E60A): 1.24 nM | EC50 (human AGR2 WT [1]): 0.52 nM | EC50 (mouse AGR2): 0.28 nM | Kd (human AGR2 WT [2]): < 0.15 nM | Kd (human AGR2 WT [3]): 0.116 nM | koff (human AGR2 WT [3]): 3.52e-05 s⁻¹ | kon (human AGR2 WT [3]): 303000 M⁻¹ s⁻¹ | binding result (BSA [5]): no binding (tested: 10 µg/mL)
B1: TH-101 IgG1-LALA humanized monoclonal antibody (antibody, V domains shown)
VH: QVQLVQSGAEVKKPGASVKVSCKTSGYVFSRSWMNWVRQAPGQGLEWIGWIYPGDGDTNYNGKFKDRVTLTADKSTSTVYMELSSLRSEDTAVYFCARGGYDGSPWLSYWGQGTLVTVSS
VL: DIQMTQSPSSLSASVGDRVTITCKASQDINSYLSWFQQKPGKAPKTLIYRANRLVDGVPSRFSGSGSGQDFTLTISSLQPEDIATYYCLQYDEFPFTFGGGTKVEIKR
binding result (human AGR3 [4]): no binding (tested: 10 µg/mL)

EC50 (dog AGR2): 0.48 nM | EC50 (macaque AGR2): 0.44 nM | EC50 (human AGR2 E60A): 0.92 nM | EC50 (human AGR2 WT [1]): 0.527 nM | EC50 (mouse AGR2): 0.3 nM | Kd (human AGR2 WT [2]): < 0.15 nM | Kd (human AGR2 WT [3]): 0.0278 nM | koff (human AGR2 WT [3]): 8.23e-06 s⁻¹ | kon (human AGR2 WT [3]): 296000 M⁻¹ s⁻¹ | binding result (BSA [7]): no binding (tested: 10 µg/mL)
B2: TH-104 IgG1-LALA humanized monoclonal antibody (antibody, V domains shown)
VH: QVQLVQSGSELKKPGASVKVSCKTSGYVFSRSWMNWVRQAPGQGLEWIGWIYPGDGDTNYNGKFKDRFVLSADKSVSTVYLQISSLKAEDTAVYFCARGGYDGSPWLSYWGQGTLVTVSS
VL: B1 VL
binding result (human AGR3 [6]): no binding (tested: 10 µg/mL)

EC50 (dog AGR2): 0.6 nM | EC50 (macaque AGR2): 0.62 nM | EC50 (human AGR2 E60A): 1.29 nM | EC50 (human AGR2 WT [1]): 0.813 nM | EC50 (mouse AGR2): 0.5 nM | Kd (human AGR2 WT [2]): < 0.15 nM | Kd (human AGR2 WT [3]): 0.063 nM | koff (human AGR2 WT [3]): 1.94e-05 s⁻¹ | kon (human AGR2 WT [3]): 308000 M⁻¹ s⁻¹ | binding result (BSA [9]): no binding (tested: 10 µg/mL)
B3: TH-115 IgG1-LALA humanized monoclonal antibody (antibody, V domains shown)
VH: QVQLLESGGGLVKPGGSLRLSCATSGYVFSRSWMNWIRQAPGQGLEWIGWIYPGDGDTNYNGKVKDRFTLSADKAKNSVYLQMNSLRAEDTAVYFCARGGYDGSPWLSYWGQGTLVTVSS
VL: EIVLTQSPDFQSVTPKEKVTITCKASQDINSYLSWFQQKPDQSPKTLIYRANRLVDGVPSRFSGSGSGQDFTLTINSLEAEDAATYYCLQYDEFPFTFGGGTKVEIKR
binding result (human AGR3 [8]): no binding (tested: 10 µg/mL)

EC50 (dog AGR2): 0.547 nM | EC50 (macaque AGR2): 0.547 nM | EC50 (human AGR2 E60A): 0.96 nM | EC50 (human AGR2 WT [1]): 0.633 nM | EC50 (mouse AGR2): 0.313 nM | Kd (human AGR2 WT [2]): < 0.15 nM | Kd (human AGR2 WT [3]): 0.00327 nM | koff (human AGR2 WT [3]): 1.07e-06 s⁻¹ | kon (human AGR2 WT [3]): 326000 M⁻¹ s⁻¹ | binding result (BSA [11]): no binding (tested: 10 µg/mL)
B4: TH-106 IgG1-LALA humanized monoclonal antibody (antibody)
heavy: not shown
light: EIVLTQSPATLSLSPGERATLSCKASQDINSYLSWFQQKPGQAPRTLIYRANRLVDGIPARFSGSGSGQDFTLTISSLEPEDFAVYYCLQYDEFPFTFGGGTKVEIKRTVAAPSVFIFPPSDEQLKSGTASVVCLLNNFYPREAKVQWKVDNALQSGNSQESVTEQDSKDSTYSLSSTLTLSKADYEKHKVYACEVTHQGLSSPVTKSFNRGEC
binding result (human AGR3 [10]): no binding (tested: 10 µg/mL)

EC50 (dog AGR2): 2.31 nM | EC50 (macaque AGR2): 2.15 nM | EC50 (human AGR2 E60A): 3.57 nM | EC50 (human AGR2 WT [1]): 2.37 nM | EC50 (mouse AGR2): 2.03 nM | Kd (human AGR2 WT [2]): < 0.15 nM | Kd (human AGR2 WT [3]): 0.0265 nM | koff (human AGR2 WT [3]): 8.74e-06 s⁻¹ | kon (human AGR2 WT [3]): 329000 M⁻¹ s⁻¹ | binding result (BSA [13]): no binding (tested: 10 µg/mL)
B5: TH-109 IgG1-LALA humanized monoclonal antibody (antibody, V domains shown)
VH: B2 VH
VL: EIVLTQSPATLSLSPGERATLSCKASQDINSYLSWFQQKPGQAPRTLIYRANRLVDGIPARFSGSGSGQDFTLTISSLEPEDFAVYYCLQYDEFPFTFGGGTKVEIKR
binding result (human AGR3 [12]): no binding (tested: 10 µg/mL)

EC50 (dog AGR2): 0.66 nM | EC50 (macaque AGR2): 0.553 nM | EC50 (human AGR2 E60A): 1.1 nM | EC50 (human AGR2 WT [1]): 0.853 nM | EC50 (mouse AGR2): 0.3 nM | binding result (BSA [15]): no binding (tested: 10 µg/mL)
B6: TH-106 IgG1 humanized monoclonal antibody (antibody)
heavy: not shown
light: B4 light
binding result (human AGR3 [14]): no binding (tested: 10 µg/mL)
